Assay results reported in article PMC9748336.

Target: HA-tagged PP2A catalytic Cα subunit p.Cys196Arg variant (human) (UniProt P67775)
Assay: co-IP; HA pull-down: lysates of HEK293T cells transfected with HA-Cα incubated 1 h at 4°C with anti-HA-agarose beads in NENT100 buffer with 1 mg/ml BSA; washes with 300 and 150 mM NaCl; endogenous A subunit detected by anti-A immunoblot, quantified against the anti-HA signal, WT set at 100%

endogenous PP2A A subunit (from UniProt P30153 1-589) (natural protein)
percent decrease of binding against Cα WT: 40%
